Measured values taken from the supplement of paper PMC11811203.

B1: THAP1; numbered along this chain (parent)
chain: MVQSCSAYGCKNRYDKDKPVSFHKFPLTRPSLCKEWEAAVRRKNFKPTKYSSICSEHFTPDCFKRECNNKLLKENAVPTIFLCTEPHDKKEDLLEPQEQLPPPPLPPPVSQVDAAIGLLMPPLQTPVNLSVFCDHNYTVEDTMHQRKRIHQLEQQVEKLRKKLKTAQQRCRRQERQLEKLKEVVHFQKEKDDVSERGYVILPNDYFEIVEVPA

Variants of: B1
Assay: THAP1 transcriptional activity (GFP+/GFP- enrichment relative to wild-type constructs) (ratio to WT); higher = more THAP1 activity (PSMB5 reporter activation)
Conditions: with PSMB5 promoter-GFP reporter
In short: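 A lentiviral site-saturation library covering residues 2–213 of human THAP1, with each position changed to all 20 amino acids, was transduced in duplicate at MOI ~0.3 into THAP1-knockout HEK-293T cells with mClover3 knocked in at endogenous PSMB5. Five days later, BFP+ cells were sorted into GFP-dim and GFP-bright bins and variants were counted by Illumina sequencing of genomic DNA amplicons. Activity is the bright/dim read fold change averaged over replicates and divided by the mean of wild-type synonymous constructs.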

THAP1 transcriptional activity: each site, then its substitutions
P106: D 1.76 | E 2.61 | F 0.72 | H 0.72 | I 1.07 | K 1.89 | L 0.994 | M 1.23 | N 1.89 | R 1.58 | S 2.1 | T 1.33 | V 1.39 | W 0.703 | Y 1.49
P107: A 1.2 | C 0.851 | D 1.21 | E 1.58 | F 0.519 | G 1.11 | H 0.688 | I 0.533 | K 1.6 | L 1.74 | M 1.29 | N 0.608 | Q 1.2 | R 0.608 | S 1.14 | T 1.04 | W 0.215 | Y 1.42
P108: A 1.3 | C 0.724 | D 1.66 | E 1.26 | F 0.519 | G 1.24 | H 1.01 | I 1.18 | K 0.9 | L 1.93 | M 0.588 | N 2.3 | Q 1.31 | S 1.65 | T 1.43 | V 2.03 | W 0.601 | Y 0.559
V109: A 1.33 | C 1.49 | D 2.07 | E 3.82 | F 0.884 | G 1.96 | I 0.777 | K 2.39 | L 2.8 | M 1.17 | N 2.02 | Q 1.24 | R 0.788 | S 1.31 | T 1.18 | W 0.467 | Y 0.304
S110: A 0.787 | C 0.567 | D 0.782 | E 0.424 | F 0.715 | G 1.15 | H 0.672 | I 0.783 | K 1.31 | L 0.361 | M 0.337 | P 0.916 | Q 0.788 | R 0.973 | T 0.793 | V 0.459 | W 0.41 | Y 0.394
Q111: A 0.608 | C 0.52 | D 1.06 | E 0.762 | F 0.585 | G 0.565 | H 0.97 | I 0.508 | K 1.01 | L 0.357 | M 0.329 | N 0.81 | P 0.993 | R 0.543 | T 1.13 | V 0.457 | W 0.132 | Y 0.232
V112: A 0.615 | C 1.08 | D 0.804 | E 1.25 | F 0.388 | G 1.11 | H 0.743 | I 0.587 | K 1.74 | L 0.629 | M 1.24 | N 1.3 | P 1.04 | Q 1.03 | R 0.921 | S 1.12 | T 1.06 | W 0.234
D113: A 0.667 | C 0.573 | E 0.669 | F 0.135 | G 0.816 | H 0.473 | I 0.206 | K 0.918 | L 0.336 | M 0.24 | N 0.681 | P 0.638 | Q 0.7 | R 0.285 | S 0.697 | T 0.375 | V 0.277 | W 0.173 | Y 0.229
A114: C 0.678 | D 1.33 | E 0.768 | F 0.602 | G 0.748 | H 0.483 | I 0.238 | K 0.546 | L 0.635 | M 0.387 | N 1.35 | P 1.29 | Q 0.985 | S 0.612 | T 1.27 | V 0.296 | W 0.317 | Y 0.291
A115: C 0.428 | D 1.12 | E 1.47 | F 0.278 | G 0.474 | H 0.76 | I 0.237 | K 0.658
